# Measurements published in paper doi:10.1101/2022.02.17.480751 (bioRxiv, 2022).
# B1: 87G7 human monoclonal antibody (recombinant human IgG1/kappa) (antibody, V domains shown)
# VH: EVQLLESGGGLVQPGGSLRLSCVASGFTFSSYVMSWVRQAPGKGLEWVAAISGSGGNTYYADSVKGRFTISRDNSKNTLYLQMNSLRAEDTAVYYCAKEGTYYYGSGSFWGQGTLVTVSS
# VL: EIVLTQSPATLSLSPGERATLSCRASQSFHNYLAWYQQKPGRAPRLLIFDASNRATGIPARFSGSGSGTDFTLTISSLEPEDFAVYYCQQRFNWPLTFGGGTKVEIK
# B2: REGN10933 (recombinant human IgG1/kappa) (antibody, V domains shown)
# VH: QVQLVESGGGLVKPGGSLRLSCAASGFTFSDYYMSWIRQAPGKGLEWVSYITYSGSTIYYADSVKGRFTISRDNAKSSLYLQMNSLRAEDTAVYYCARDRGTTMVPFDYWGQGTLVTVSS
# VL: DIQMTQSPSSLSASVGDRVTITCQASQDITNYLNWYQQKPGKAPKLLIYAASNLETGVPSRFSGSGSGTDFTFTISGLQPEDIATYYCQQYDNLPLTFGGGTKVEIK
# B3: REGN10987 (recombinant human IgG1/kappa) (antibody, V domains shown)
# VH: QVQLVESGGGVVQPGRSLRLSCAASGFTFSNYAMYWVRQAPGKGLEWVAVISYDGSNKYYADSVKGRFTISRDNSKNTLYLQMNSLRTEDTAVYYCASGSDYGDYLLVYWGQGTLVTVSS
# VL: QSALTQPASVSGSPGQSITISCTGTSSDVGGYNYVSWYQQHPGKAPKLMIYDVSKRPSGVSNRFSGSKSGNTASLTISGLQSEDEADYYCNSLTSISTWVFGGGTKLTVL
# How the values were obtained:
# [1] = molecular target: SARS-CoV-2 S receptor-binding domain (RBD, residues 329-538, Wuhan-Hu-1), Strep-tagged (SARS-CoV-2, Wuhan-Hu-1, UniProt P0DTC2); assay: ELISA
# [2] = molecular target: SARS-CoV-2 S1 (residues 1-682, Wuhan-Hu-1), Strep-tagged (SARS-CoV-2, Wuhan-Hu-1, UniProt P0DTC2); assay: ELISA
binder,measurement,setting,value
B1,binding result,[1],binds
same,binding result,[2],binds
B2,binding result,[2],binds
B3,binding result,[2],binds
